Results taken from article PMC6848931, “Exportin-1-Dependent Nuclear Export of DEAD-box Helicase DDX3X is Central to its Role in Antiviral Immunity” (Cells, 2019).
Each block holds one binder with its values, some of them ahead of it.

Target: Exportin-1-Ran-GTP complex (human, UniProt O14980 1-1071; P62826 1-216, Q69L)
Assay: AUC; sedimentation velocity with Ran-GTP present; proteins incubated together at equimolar concentrations at 20 °C for 30 min in GF1 buffer (20 mM Tris-Cl pH 7.5, 100 mM NaCl, 5 mM MgOAc, 2 mM DTT); 40,000 rpm, 280 nm, c(s) analysis
Conditions: both partners purified

binding result: binds
B1: 6His-DDX3X(1-580) (domain or fragment)
chain: MSHVAVENALGLDQQFAGLDLNSSDNQSGGSTASKGRYIPPHLRNREATKGFYDKDSSGWSSSKDKDAYSSFGSRSDSRGKSSFFSDRGSGSRGRFDDRGRSDYDGIGSRGDRSGFGKFERGGNSRWCDKSDEDDWSKPLPPSERLEQELFSGGNTGINFEKYDDIPVEATGNNCPPHIESFSDVEMGEIIMGNIELTRYTRPTPVQKHAIPIIKEKRDLMACAQTGSGKTAAFLLPILSQIYSDGPGEALRAMKENGRYGRRKQYPISLVLAPTRELAVQIYEEARKFSYRSRVRPCVVYGGADIGQQIRDLERGCHLLVATPGRLVDMMERGKIGLDFCKYLVLDEADRMLDMGFEPQIRRIVEQDTMPPKGVRHTMMFSATFPKEIQMLARDFLDEYIFLAVGRVGSTSENITQKVVWVEESDKRSFLLDLLNATGKDSLTLVFVETKKGADSLEDFLYHEGYACTSIHGDRSQRDREEALHQFRSGKSPILVATAVAARGLDISNVKHVINFDLPSDIEEYVHRIGRTGRVGNLGLATSFFNERNINITKDLLDLLVEAKQEVPSWLENMAYEHHY
notes: DEAD-box helicase 3, X-linked (DDX3X), human, residues 1-580 of the 662-residue protein; Cloned in pCOLD-IV with an N-terminal 6His tag; no removal of the tag is described; also called wild-type DDX3X(1‒580); DEAD-box helicase 3, X-linked; source: E. coli BL21(DE3), purified (Ni-NTA, Superdex 200 SEC)

binding result: binds
B2: DDX3X(1-168) (domain or fragment)
chain: MSHVAVENALGLDQQFAGLDLNSSDNQSGGSTASKGRYIPPHLRNREATKGFYDKDSSGWSSSKDKDAYSSFGSRSDSRGKSSFFSDRGSGSRGRFDDRGRSDYDGIGSRGDRSGFGKFERGGNSRWCDKSDEDDWSKPLPPSERLEQELFSGGNTGINFEKYDDIPV
notes: DEAD-box helicase 3, X-linked (DDX3X), human, residues 1-168; The purification section names only the 1-580 constructs; the expression and purification of the 1-168 fragment are not described on their own; also called DDX3X(1–168) fragment; source: purified recombinant; truncations were cloned in pCOLD-IV for bacterial expression
